Assay results taken from US20170088602A1 (Bristol-Myers Squibb, published 2017).
Numbering of substitutions follows the chain as printed. Numbers in names are those of the source.

T1: human myostatin (mature, recombinant; R&D Systems) (human, UniProt O14793 267-375)
T1 construct: biotinylated in the mRNA display selection; also called GDF-8; mature myostatin
T1 sequence: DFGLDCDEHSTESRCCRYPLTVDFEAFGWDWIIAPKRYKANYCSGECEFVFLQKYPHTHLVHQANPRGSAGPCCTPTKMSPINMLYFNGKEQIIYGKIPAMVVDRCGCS

T2: human BMP-11 (GDF-11; R&D Systems) (human, UniProt O95390 299-407)
T2 sequence (looked up): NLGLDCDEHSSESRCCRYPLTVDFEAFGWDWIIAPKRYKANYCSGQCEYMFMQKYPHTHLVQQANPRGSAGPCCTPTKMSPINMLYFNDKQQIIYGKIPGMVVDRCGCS

T3: human Activin A (R&D Systems) (human, UniProt P08476 311-426)
T3 sequence (looked up): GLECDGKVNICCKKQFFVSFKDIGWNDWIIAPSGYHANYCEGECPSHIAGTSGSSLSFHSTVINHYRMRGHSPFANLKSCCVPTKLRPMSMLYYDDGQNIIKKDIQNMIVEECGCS

B1: 2062_G02 (designed binder)
chain: MGVSDVPRDLEVVAATPTSLLISWVSPRGRARYYRITYGETGGNSPVQEFTVPGRGSTATISGLKPGVDYTITVYAVTIYRDGMSHHDPISINYRTEIDKPSQHHHHHH
notes: also called ATI-1134
B2: 2523_G06 (designed binder)
chain: B1 chain with V25W, S26A, R28L, R30L, Y80F, D82T, S85V, H86Q, H87Y
B3: ATI-1376 [40K 2-branch PEG] (designed binder)
chain: MGVSDVPRDLEVVAATPTSLLISWDAPAGLARYYRITYGETGGNSPVQEFTVVGRGNTATISGLKPGVDYTITVYAVTIFRDGPVTWDPISINYRTEGSGCHHHHHH
modifications: 40K 2-branch PEG on the Cys of the EGSGC tail
notes: cysteine mutant of 3115_E06
B4: ATI-1377 [40K 2-branch PEG] (designed binder)
chain: B3 chain with A28K
modifications: 40K 2-branch PEG on the Cys of the EGSGC tail
B5: ATI-1375 [40K 2-branch PEG] (designed binder)
chain: B3 chain with A28R, V53F, N57T, F80D, P84T, V85R, T86S, W87F
modifications: 40K 2-branch PEG on the Cys of the EGSGC tail
notes: cysteine mutant of 3115_D04
B6: ATI-1107 [40K 2-branch PEG] (designed binder)
chain: MGVSDVPRDLEVVAATPTSLLISWSLPHAGHVNYYRITYGETGGNSPVQEFTVPGRGVTATISGLKPGVDYTITVYAVTLTKSQMIHYMPISINYRTGSGCHHHHHH
modifications: 40K 2-branch PEG on the Cys of the GSGC tail
notes: cysteine mutant of 1979_B06
B7: ATI-1359 [40K 2-branch PEG] (designed binder)
chain: MGVSDVPRDLEVVAATPTSLLISWTLPHAGRAHYYRITYGETGGNSPVQEFTVPGRGVTATISGLKPGVDYTITVYAVTVTTTKVIHYKPISINYRTEGSGC
modifications: 40K 2-branch PEG on the Cys of the EGSGC tail
B8: 1979_B06 (designed binder)
chain: MGVSDVPRDLEVVAATPTSLLISWSLPHAGHVNYYRITYGETGGNSPVQEFTVPGRGVTATISGLKPGVDYTITVYAVTLTKSQMIHYMPISINYRTEIDKPSQHHHHHH
notes: monoAdnectin with His6 tag; also called ATI-1133
B9: 2524_E10 (designed binder)
chain: B8 chain with H28F, V32L, K82R, Q84K, M85I
B10: 2524_H11 (designed binder)
chain: B8 chain with V32A, N33H, L80V, T81S, K82S, S83T, Q84K, M85V, H87V, M89L
B11: 2525_D05 (designed binder)
chain: B8 chain with H28Y, V32L, M85L
B12: 2524_C11 (designed binder)
chain: B8 chain with S25T, H31L, V32A, N33H, K82N, Q84E, M85I, H87L, M89K
B13: 3116_A06 H28A (designed binder)
chain: MGVSDVPRDLEVVAATPTSLLISWSLPAQGKANYYRITYGETGGNSPVQEFTVPGRGVTATISGLKPGVDYTITVYAVTVTDTGYLKYKPISINYRTEIDKPSQHHHHHH
B14: 3116_A06 L26A (designed binder)
chain: B13 chain with L26A, A28H
B15: 3116_A06 P27A (designed binder)
chain: B13 chain with P27A, A28H
B16: 3116_A06 N33A (designed binder)
chain: B13 chain with A28H, N33A
B17: 3116_A06 Y85A (designed binder)
chain: B13 chain with A28H, Y85A
B18: 3116_A06 L86A (designed binder)
chain: B13 chain with A28H, L86A

molecular target: T1, human myostatin (mature, recombinant; …); assay: SPR format A, 25C
Excerpt: (§1) Anti-human Fc antibody (Biacore/GE) was immobilized on a Biacore CM5 chip via NHS/EDC coupling according to the manufacturer's instructions. […] A concentration range of anti-myostatin Adnectin was applied across all flow cells in HBSP running buffer. Regeneration of the chip surface between cycles was accomplished with two 30 second pulses of 3M MgCl₂. Kinetic traces of reference-subtracted sensorgrams were fit to a 1:1 binding model using Biaevaluation software.

In order of falling Kd:
1. B6  128 nM
2. B1  48.8 nM
3. B8  29 nM
4. B5  12.6 nM
5. B3  8.21 nM
6. B4  8.21 nM
7. B7  7.9 nM
8. B2  1.47 nM
9. B9  1.34 nM
10. B11  1.28 nM
11. B10  1.12 nM
12. B12  0.62 nM

molecular target: T2, human BMP-11 (GDF-11; R&D Systems); assay: SPR format A, 25C
Excerpt: as §1

In order of falling Kd:
1. B1  697 nM
2. B8  489 nM
3. B6  ~300 nM
4. B7  35.5 nM
5. B5  33.2 nM
6. B4  14.2 nM
7. B3  13.4 nM
8. B2  10.7 nM
9. B11  1.99 nM
10. B9  1.42 nM
11. B10  1.22 nM
12. B12  0.67 nM

molecular target: T3, human Activin A (R&D Systems); assay: SPR format A, 25C
Excerpt: as §1

B1: no binding.
B2: no binding.
B6: no binding.
B8: no binding.
B9: no binding.
B10: no binding.
B11: no binding.
B12: no binding.

molecular target: T1, human myostatin (mature, recombinant; …); assay: cell-based or functional assay

B13 and B14 cannot be ordered by “ARE-luciferase cell-based assay, IC50 relative to parent sequence” value: greater than 10 fold for the first, greater than 10 fold for the second.

B15 and B16 cannot be ordered by “ARE-luciferase cell-based assay, IC50 relative to parent sequence” value: greater than 10 fold for the first, greater than 10 fold for the second.

B17 and B18 cannot be ordered by “ARE-luciferase cell-based assay, IC50 relative to parent sequence” value: greater than 10 fold for the first, greater than 10 fold for the second.

molecular target: T1, human myostatin (mature, recombinant; …); assay: cell-based or functional assay; remark: another data set of the same source

In order of rising “ARE-luciferase IC50” value:
1. B10  0.03 nM
2. B9  0.09 nM
3. B12  0.1 nM
4. B8  0.11 nM
5. B11  0.11 nM
6. B2  4.2 nM
7. B1  205 nM

molecular target: T2, human BMP-11 (GDF-11; R&D Systems); assay: cell-based or functional assay

In order of rising “ARE-luciferase IC50” value:
1. B12  0.89 nM
2. B8  3.3 nM
3. B11  3.9 nM
4. B9  5.6 nM
5. B10  6.2 nM
6. B2  46 nM
7. B1  1500 nM

molecular target: T3, human Activin A (R&D Systems); assay: cell-based or functional assay

B1 and B2 cannot be ordered by “ARE-luciferase IC50” value: greater than 1500 nM for the first, greater than 2000 nM for the second.

Going from B8 to B9, the “ARE-luciferase IC50” value rises from 194 nM to greater than 1000 nM.

B10 and B11 cannot be ordered by “ARE-luciferase IC50” value: greater than 1000 nM for the first, greater than 1000 nM for the second.

In the case of B12, the “ARE-luciferase IC50” value is reported as 765 nM.

molecular target: T1, human myostatin (mature, recombinant; …); assay: cell-based or functional assay; remark: another data set of the same source

In order of falling “ARE-luciferase IC50” value:
1. B6  19 nM
2. B7  0.26 nM
3. B5  0.17 nM
4. B4  0.05 nM
5. B3  0.03 nM

molecular target: T2, human BMP-11 (GDF-11; R&D Systems); assay: cell-based or functional assay; remark: another data set of the same source

In order of rising “ARE-luciferase IC50” value:
1. B4  0.78 nM
2. B3  0.83 nM
3. B5  1.6 nM
4. B7  3.1 nM
5. B6  888 nM

molecular target: T3, human Activin A (R&D Systems); assay: cell-based or functional assay; remark: another data set of the same source

B3 and B4 cannot be ordered by “ARE-luciferase IC50” value: greater than 1000 nM for the first, greater than 1000 nM for the second.

B5 and B6 cannot be ordered by “ARE-luciferase IC50” value: greater than 1000 nM for the first, greater than 2000 nM for the second.

With B7 the “ARE-luciferase IC50” value was greater than 1000 nM.

molecular target: T1, human myostatin (mature, recombinant; …); assay: cell-based or functional assay; remark: another data set of the same source

In order of falling “pSmad2 IC50, 12-point” value:
1. B1  59.1 nM
2. B8  12.8 nM
3. B2  0.78 nM
4. B11  0.2 nM
5. B12  0.14 nM
6. B9  0.13 nM
7. B10  0.11 nM

molecular target: T1, human myostatin (mature, recombinant; …); assay: cell-based or functional assay; remark: another data set of the same source

In order of rising “Myostatin ARE-luc IC50” value:
1. B17  5.5 nM
2. B13  6.2 nM
3. B16  9.8 nM
4. B15  10 nM
5. B18  12 nM
6. B14  16 nM

molecular target: T1, human myostatin (mature, recombinant; …); assay: competitive HTRF, alanine scan

In order of falling IC50:
1. B14  2.3 nM
2. B16  2 nM
3. B17  2 nM
4. B18  1.4 nM
5. B15  1 nM
6. B13  0.8 nM

molecular target: T1, human myostatin (mature, recombinant; …); assay: competitive HTRF (1889E01/myostatin/ActRIIb-Fc sandwich)
Excerpt: An HTRF assay was used to measure the binding affinities of anti-myostatin Adnectins to myostatin. […] The Eu-W 1024 labeled Streptavidin is used to bind biotinylated 1889E01. […] In the presence of a competitive Adnectin, the HTRF signal decreases.

In order of rising IC50:
1. B4  0.15 nM
2. B3  0.32 nM
3. B7  0.36 nM
4. B5  0.76 nM
